This is an account of results in publication PMC9865274, “Ultrasensitive Detection of Interleukin 6 by Using Silicon Nanowire Field-Effect Transistors”.

The target of this data set is Interleukin 6 (IL-6) (Homo sapiens, UniProt P05231 30-212). Put plainly: SiNW-FET (gate voltage shift); aptamer immobilized on mSAMs-GA; IL-6 in PBS pH 7.4, 30 min; valid signal from 100 fM (2.1 pg/mL), approx. linear to 10 nM; no Kd; IL-6 in PBS pH 7.4, 30 min incubation, PBS wash; readout in 10 mM bis-tris propane pH 7.4; temperature of binding not stated. Conditions: protein: commercial.
Sequence of Interleukin 6 (IL-6) (P05231 30-212): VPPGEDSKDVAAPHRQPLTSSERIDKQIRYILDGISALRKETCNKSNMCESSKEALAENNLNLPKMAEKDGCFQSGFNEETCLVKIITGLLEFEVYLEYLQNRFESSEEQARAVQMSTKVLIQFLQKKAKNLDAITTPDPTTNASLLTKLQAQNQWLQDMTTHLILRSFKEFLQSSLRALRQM

As for GGTGGCAGGAGGACTATTTATTTGCTTTTCT (ssDNA, 5'-NH2-C6, covalently immobilized via glutaraldehyde on mixed-SAM SiNW-FET) [anti-IL-6 aptamer (31 nt)], the binding result is listed as “binds”.
